Consider 125 sequences from the supplement of paper PMC9112550, “Optimization of the antimicrobial peptide Bac7 by deep mutational scanning” (BMC Biology, 2022).

The data set deals with Escherichia coli TOP10. Briefly: shrunken log2 fold change of peptide-encoding DNA abundance (4.5 h post-induction vs induction); higher = less antimicrobial activity (less host growth inhibition). The conditions noted are these: time post-induction: 4.5 h; library: site-saturation at positions 5, 18, 19, 20.
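Note: peptides expressed intracellularly from a pBAD plasmid library in pooled LB shake-flask culture, induced with 0.3% L-arabinose, DNA abundance read by NGS, three biological replicates, DESeq2 with apeglm shrinkage.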

With RRIRIRPPRLPRPRPRPFHLPRP, the “shrunken log2 fold change” value was -0.0356.

For RRIRTRPPRLPRPRPRPIWEPRP, the “shrunken log2 fold change” value was -0.178.

In the case of RRIRRRPPRLPRPRPRPNSNPRP, the “shrunken log2 fold change” value is -0.302.

RRIRPRPPRLPRPRPRPVFFPRP: the “shrunken log2 fold change” value was 0.213.

As for RRIRVRPPRLPRPRPRPCERPRP, the “shrunken log2 fold change” value is -0.00992.

Turning to RRIRARPPRLPRPRPRPFFNPRP, the “shrunken log2 fold change” value is -0.0671.

RRIRYRPPRLPRPRPRPKMEPRP: the “shrunken log2 fold change” value was -0.529.

For the sequence RRIRHRPPRLPRPRPRPQEMPRP, the “shrunken log2 fold change” value is -0.0755.

RRIRIRPPRLPRPRPRPEYMPRP: the “shrunken log2 fold change” value was -1.14.

On to RRIRIRPPRLPRPRPRPPCFPRP, for which the “shrunken log2 fold change” value was -0.11.

For the sequence RRIRHRPPRLPRPRPRPMHSPRP, the “shrunken log2 fold change” value turned out to be 0.0758.

Consider RRIRSRPPRLPRPRPRPLWQPRP, for which the “shrunken log2 fold change” value turned out to be 0.311.

As for RRIRCRPPRLPRPRPRPYSAPRP, the “shrunken log2 fold change” value is -0.752.

As to RRIRRRPPRLPRPRPRPHTYPRP, the “shrunken log2 fold change” value came to 0.573.

For RRIRQRPPRLPRPRPRPTDHPRP, the “shrunken log2 fold change” value came to 0.0174.

Regarding RRIRPRPPRLPRPRPRPNKIPRP, the “shrunken log2 fold change” value is -0.203.

For the sequence RRIRYRPPRLPRPRPRPCMGPRP, the “shrunken log2 fold change” value was -0.198.

RRIRARPPRLPRPRPRPDYPPRP: the “shrunken log2 fold change” value was -0.0306.

Take RRIRFRPPRLPRPRPRPHHDPRP: the “shrunken log2 fold change” value was -0.379.

Regarding RRIRLRPPRLPRPRPRPCRTPRP, the “shrunken log2 fold change” value is -0.66.

Take RRIRDRPPRLPRPRPRPNDPPRP: the “shrunken log2 fold change” value was -0.125.

On to RRIRERPPRLPRPRPRPSSWPRP, for which the “shrunken log2 fold change” value is -0.0518.

Regarding RRIRGRPPRLPRPRPRPDLIPRP, the “shrunken log2 fold change” value was determined as 0.87.

For the sequence RRIRDRPPRLPRPRPRPLLQPRP, the “shrunken log2 fold change” value was determined as 0.287.

In the case of RRIRWRPPRLPRPRPRPHFLPRP, the “shrunken log2 fold change” value was 1.46.

As to RRIRLRPPRLPRPRPRPLVNPRP, the “shrunken log2 fold change” value was -0.346.

For RRIRHRPPRLPRPRPRPSKGPRP, the “shrunken log2 fold change” value is -0.149.

As for RRIRSRPPRLPRPRPRPDRPPRP, the “shrunken log2 fold change” value was -0.0605.

For RRIRWRPPRLPRPRPRPWGHPRP, the “shrunken log2 fold change” value was -0.404.

In the case of RRIRWRPPRLPRPRPRPPNQPRP, the “shrunken log2 fold change” value was determined as 0.363.

Turning to RRIRSRPPRLPRPRPRPQPIPRP, the “shrunken log2 fold change” value amounted to 0.000168.

Regarding RRIRYRPPRLPRPRPRPSTYPRP, the “shrunken log2 fold change” value is -0.332.

Regarding RRIRWRPPRLPRPRPRPYAMPRP, the “shrunken log2 fold change” value was 0.0576.

In the case of RRIRIRPPRLPRPRPRPAMHPRP, the “shrunken log2 fold change” value was -0.221.

Consider RRIRVRPPRLPRPRPRPTGTPRP, for which the “shrunken log2 fold change” value worked out at 0.699.

On to RRIRERPPRLPRPRPRPKHTPRP, for which the “shrunken log2 fold change” value is -0.127.

On to RRIRFRPPRLPRPRPRPSFNPRP, for which the “shrunken log2 fold change” value is -0.792.

As for RRIRWRPPRLPRPRPRPCIVPRP, the “shrunken log2 fold change” value turned out to be 0.0112.

Turning to RRIRCRPPRLPRPRPRPKNDPRP, the “shrunken log2 fold change” value was -0.048.

With RRIRTRPPRLPRPRPRPCRFPRP, the “shrunken log2 fold change” value is -0.265.

Turning to RRIRMRPPRLPRPRPRPNFYPRP, the “shrunken log2 fold change” value was -0.00797.

As for RRIRDRPPRLPRPRPRPTPKPRP, the “shrunken log2 fold change” value turned out to be 0.346.

On to RRIRKRPPRLPRPRPRPYGEPRP, for which the “shrunken log2 fold change” value amounted to 0.0585.

Consider RRIRGRPPRLPRPRPRPMNRPRP, for which the “shrunken log2 fold change” value amounted to 0.022.

With RRIRWRPPRLPRPRPRPFGNPRP, the “shrunken log2 fold change” value was -0.0165.

Turning to RRIRYRPPRLPRPRPRPDTSPRP, the “shrunken log2 fold change” value was -0.0824.

RRIRMRPPRLPRPRPRPRNPPRP: the “shrunken log2 fold change” value amounted to 3.17.

In the case of RRIRLRPPRLPRPRPRPDGAPRP, the “shrunken log2 fold change” value stood at 0.0651.

For the sequence RRIRPRPPRLPRPRPRPGTEPRP, the “shrunken log2 fold change” value was -0.0123.

As to RRIRQRPPRLPRPRPRPSLRPRP, the “shrunken log2 fold change” value came out at 0.239.

Consider RRIRARPPRLPRPRPRPWTYPRP, for which the “shrunken log2 fold change” value is 0.0209.

In the case of RRIRCRPPRLPRPRPRPLPAPRP, the “shrunken log2 fold change” value came out at 0.574.

For the sequence RRIRQRPPRLPRPRPRPGYCPRP, the “shrunken log2 fold change” value was -0.0255.

RRIRQRPPRLPRPRPRPLFCPRP: the “shrunken log2 fold change” value was 0.213.

In the case of RRIRSRPPRLPRPRPRPKKMPRP, the “shrunken log2 fold change” value was -0.178.

Consider RRIRIRPPRLPRPRPRPRREPRP, for which the “shrunken log2 fold change” value is 0.123.

In the case of RRIRERPPRLPRPRPRPRCSPRP, the “shrunken log2 fold change” value was found to be 0.0243.

As to RRIRWRPPRLPRPRPRPTKHPRP, the “shrunken log2 fold change” value is -0.118.

As for RRIRPRPPRLPRPRPRPLQWPRP, the “shrunken log2 fold change” value is -0.037.

In the case of RRIRWRPPRLPRPRPRPMGEPRP, the “shrunken log2 fold change” value turned out to be 0.0775.

With RRIRFRPPRLPRPRPRPYDIPRP, the “shrunken log2 fold change” value is -0.0365.

RRIRRRPPRLPRPRPRPETYPRP: the “shrunken log2 fold change” value amounted to 0.0872.

Turning to RRIRIRPPRLPRPRPRPTTKPRP, the “shrunken log2 fold change” value was -0.664.

As to RRIRGRPPRLPRPRPRPNNCPRP, the “shrunken log2 fold change” value was found to be 0.101.

As to RRIRPRPPRLPRPRPRPQGGPRP, the “shrunken log2 fold change” value is 0.332.

As for RRIRERPPRLPRPRPRPVHCPRP, the “shrunken log2 fold change” value was -0.293.

Regarding RRIRGRPPRLPRPRPRPTDDPRP, the “shrunken log2 fold change” value was 1.01.

With RRIRQRPPRLPRPRPRPMACPRP, the “shrunken log2 fold change” value is -0.159.

As to RRIRRRPPRLPRPRPRPMPMPRP, the “shrunken log2 fold change” value turned out to be 0.0681.

With RRIRGRPPRLPRPRPRPSGEPRP, the “shrunken log2 fold change” value stood at 0.598.

With RRIRGRPPRLPRPRPRPSKFPRP, the “shrunken log2 fold change” value worked out at 0.0363.

In the case of RRIRQRPPRLPRPRPRPCRSPRP, the “shrunken log2 fold change” value amounted to 0.00709.

Turning to RRIRNRPPRLPRPRPRPHPFPRP, the “shrunken log2 fold change” value was -0.0852.

In the case of RRIRKRPPRLPRPRPRPVGYPRP, the “shrunken log2 fold change” value was found to be 0.00938.

Consider RRIRCRPPRLPRPRPRPDRWPRP, for which the “shrunken log2 fold change” value was 0.0613.

As for RRIRQRPPRLPRPRPRPWGDPRP, the “shrunken log2 fold change” value was -0.138.

In the case of RRIRWRPPRLPRPRPRPIPIPRP, the “shrunken log2 fold change” value was -0.12.

Turning to RRIRERPPRLPRPRPRPGACPRP, the “shrunken log2 fold change” value was 0.0171.

Take RRIRTRPPRLPRPRPRPKLMPRP: the “shrunken log2 fold change” value was -0.102.

Take RRIRSRPPRLPRPRPRPPQHPRP: the “shrunken log2 fold change” value was 0.184.

With RRIRHRPPRLPRPRPRPMTKPRP, the “shrunken log2 fold change” value came to 0.0576.

Consider RRIRNRPPRLPRPRPRPYCQPRP, for which the “shrunken log2 fold change” value is -0.358.

Take RRIRYRPPRLPRPRPRPSQWPRP: the “shrunken log2 fold change” value is -0.162.

RRIRYRPPRLPRPRPRPRFHPRP: the “shrunken log2 fold change” value is -0.939.

As for RRIRWRPPRLPRPRPRPRKAPRP, the “shrunken log2 fold change” value is 0.285.

With RRIRHRPPRLPRPRPRPNAAPRP, the “shrunken log2 fold change” value was 0.299.

Take RRIRERPPRLPRPRPRPAKRPRP: the “shrunken log2 fold change” value is 0.0249.

Turning to RRIRYRPPRLPRPRPRPWNKPRP, the “shrunken log2 fold change” value was -0.00965.

As to RRIRNRPPRLPRPRPRPLAFPRP, the “shrunken log2 fold change” value turned out to be 0.0414.

As to RRIRHRPPRLPRPRPRPDTVPRP, the “shrunken log2 fold change” value amounted to 0.028.

As to RRIRSRPPRLPRPRPRPIMTPRP, the “shrunken log2 fold change” value is 0.164.

Consider RRIRFRPPRLPRPRPRPDEPPRP, for which the “shrunken log2 fold change” value came to 0.248.

For the sequence RRIRGRPPRLPRPRPRPYQNPRP, the “shrunken log2 fold change” value was -0.0136.

Take RRIRCRPPRLPRPRPRPHYVPRP: the “shrunken log2 fold change” value was -0.78.

With RRIRQRPPRLPRPRPRPTQVPRP, the “shrunken log2 fold change” value is -0.0311.

On to RRIRDRPPRLPRPRPRPEWSPRP, for which the “shrunken log2 fold change” value was found to be 0.364.

Regarding RRIRGRPPRLPRPRPRPDFGPRP, the “shrunken log2 fold change” value was 0.0741.

Take RRIRHRPPRLPRPRPRPLHCPRP: the “shrunken log2 fold change” value was -0.519.

Take RRIRTRPPRLPRPRPRPLEGPRP: the “shrunken log2 fold change” value is -0.0217.

RRIRVRPPRLPRPRPRPTDAPRP: the “shrunken log2 fold change” value worked out at 0.0111.

Consider RRIRSRPPRLPRPRPRPHHPPRP, for which the “shrunken log2 fold change” value is -0.369.

With RRIRYRPPRLPRPRPRPCWPPRP, the “shrunken log2 fold change” value turned out to be 0.0499.

In the case of RRIRDRPPRLPRPRPRPPEYPRP, the “shrunken log2 fold change” value was -0.0893.

With RRIRCRPPRLPRPRPRPHYLPRP, the “shrunken log2 fold change” value was -0.574.

Regarding RRIRIRPPRLPRPRPRPLMIPRP, the “shrunken log2 fold change” value is -0.807.

On to RRIRQRPPRLPRPRPRPWINPRP, for which the “shrunken log2 fold change” value is -0.408.

For the sequence RRIRLRPPRLPRPRPRPSELPRP, the “shrunken log2 fold change” value was -0.195.

As for RRIRVRPPRLPRPRPRPIRWPRP, the “shrunken log2 fold change” value is -0.0339.

As to RRIRDRPPRLPRPRPRPQFSPRP, the “shrunken log2 fold change” value was found to be 0.0361.

As to RRIRDRPPRLPRPRPRPLLSPRP, the “shrunken log2 fold change” value came out at 0.447.

RRIRWRPPRLPRPRPRPKDHPRP: the “shrunken log2 fold change” value is 0.182.

For the sequence RRIRVRPPRLPRPRPRPITSPRP, the “shrunken log2 fold change” value is -0.21.

For RRIRTRPPRLPRPRPRPPENPRP, the “shrunken log2 fold change” value came out at 0.201.

Take RRIRHRPPRLPRPRPRPTFNPRP: the “shrunken log2 fold change” value was -0.612.

For RRIRMRPPRLPRPRPRPCSQPRP, the “shrunken log2 fold change” value is -0.00549.

RRIRQRPPRLPRPRPRPHAMPRP: the “shrunken log2 fold change” value is -0.0121.

For RRIRARPPRLPRPRPRPLYIPRP, the “shrunken log2 fold change” value was -0.293.

Turning to RRIRDRPPRLPRPRPRPDQWPRP, the “shrunken log2 fold change” value was 0.396.

Consider RRIRARPPRLPRPRPRPSRKPRP, for which the “shrunken log2 fold change” value was found to be 0.00605.

Regarding RRIRQRPPRLPRPRPRPQFRPRP, the “shrunken log2 fold change” value was -0.0194.

As for RRIRDRPPRLPRPRPRPPHCPRP, the “shrunken log2 fold change” value turned out to be 0.0674.

Regarding RRIRRRPPRLPRPRPRPQPQPRP, the “shrunken log2 fold change” value is 0.354.

On to RRIRRRPPRLPRPRPRPHFGPRP, for which the “shrunken log2 fold change” value was 0.111.

Take RRIRCRPPRLPRPRPRPYVDPRP: the “shrunken log2 fold change” value is -0.232.

RRIRPRPPRLPRPRPRPHNEPRP: the “shrunken log2 fold change” value is -0.397.
